Biological target: HIF2α protein
Experiment: cell-based or functional assay

expression and transcriptional activity of HIF2α: 2 fold
Substance: Int6-ΔC (mutant in which the Int6 PINT (PCI) domain has been deleted)

Reference: patent EP1902729A1
